{"source": "paper PMC12654650", "about": "“Characterization of a β-Galactosidase from Kosakonia oryzendophytica and Its Heterologous Expression in Bacillus subtilis for Galactooligosaccharides Production” (Molecules, 2025)", "substrate": "O=[N+]([O-])c1ccccc1O[C@@H]1O[C@H](CO)[C@H](O)[C@H](O)[C@H]1O", "test": "purified protein", "assay_type": "biochemical, Kosakonia oryzendophytica", "conditions": "pH 7.0, 100 mM HEPES, 50 °C, 5 min, ONPG 0.3-50 mM, fit called substrate inhibition curve (Figure S4)"}
{"protein": "Koor β-gal (Kosakonia oryzendophytica) (protein, C-terminal 6xHis tag, pET-28a(+) NcoI/XhoI, E. coli BL21(DE3), Ni-NTA; synthetic gene) MSASALRTLISRRDWENPVITHWHRLPAHAPMRSWRDEQAARDNAPSSAHRLLNGEWYFRFFPAPEAVPERWITEEYDDAVAMPVPSNWQMQGFDTPIYTNVTYPIPVNPPFVPQQNPTGCYSLTFEMTAQALAQGQTRIVFDGVNSAFYLWCNGQWIGYSQDSRLPAEFDLSDVLHVGQNRLAVMVLRWCDGSYLEDQDMWRMSGIFRDVSLQHKPATHIADFHHTTELNAEFTHGQVKVDLRLAGEYSACQVAVALWHGEEKIAQAQQAPGSAIVDERGAWAERLSVSLPVSDPLLWSAETPHLYRLTLTLLDGLGNVLEVEACNVGFRKVEISNGLLKLNGKPLLIRGVNRHEHHPENGQAIDEATMRRDIELMKQHNFNAVRCSHYPNHPLWYSLCDEYGLYVVDEANIETHGMTPMSRLSDDPQWLPAMSERVTRMVLRDRNHPSIIIWSLGNESGHGASHDALYRWLKTTDPTRPVQYEGGGANTAATDIICPMYARVDEDQPFPAVPKWSIKKWIGLPDETRPLILCEYAHAMGNSFGGFAKYWQAFRETPRLQGGFVWDWVDQALTKTDTNGQSFWAYGGDFGDTPNDRQFCMNGLVFPDRTPHPALYEAQRAQQFFQFRLLNTTPLVIEVESEYLFRTTDNEYLRWAVVRDGLVLAQGEITLAIAPQGKQQIALTIPELESAPGEVWLNVDVYQKAATPWSDAEHHCAWDQWRLPSPLFIAPRKTVSSRPMLVVSEEEYVIHHRNQRWQFCRRSGDLIQWWRDEQPTLLTPLRDSFARAPLDNDIGISEVTRIDPNAWVERWKAAGMYDLRAELLACEVEEHAADIVVTTTHCWSGAGKTGFVSHKRWRIDGEGVLHGEVDVQVATDIPPPARIGLVCQLSEVQASVSWLGLGPHENYPDRKLAARQGRWTLPLAALHTPYIFPGENGLRCETRELHYGAHHLNGDFHFSLGRYSDKQLRETTHHHLLREEAGCWLHLDAFHMGVGGDDSWSPSVSPEFILRSERVRYAFCWRQD", "values": [{"measurement": "Km", "result": "6.0 ± 0.3", "unit": "mM"}, {"measurement": "kcat", "result": "732.7 ± 43.5", "unit": "s⁻¹"}]}
